Assay results from US20120121596A1 (published 2012).

T1: HER4-ECD-Fc (human, UniProt Q15303 26-651, limits assumed)
T1 construct: extracellular domain
T1 sequence (looked up): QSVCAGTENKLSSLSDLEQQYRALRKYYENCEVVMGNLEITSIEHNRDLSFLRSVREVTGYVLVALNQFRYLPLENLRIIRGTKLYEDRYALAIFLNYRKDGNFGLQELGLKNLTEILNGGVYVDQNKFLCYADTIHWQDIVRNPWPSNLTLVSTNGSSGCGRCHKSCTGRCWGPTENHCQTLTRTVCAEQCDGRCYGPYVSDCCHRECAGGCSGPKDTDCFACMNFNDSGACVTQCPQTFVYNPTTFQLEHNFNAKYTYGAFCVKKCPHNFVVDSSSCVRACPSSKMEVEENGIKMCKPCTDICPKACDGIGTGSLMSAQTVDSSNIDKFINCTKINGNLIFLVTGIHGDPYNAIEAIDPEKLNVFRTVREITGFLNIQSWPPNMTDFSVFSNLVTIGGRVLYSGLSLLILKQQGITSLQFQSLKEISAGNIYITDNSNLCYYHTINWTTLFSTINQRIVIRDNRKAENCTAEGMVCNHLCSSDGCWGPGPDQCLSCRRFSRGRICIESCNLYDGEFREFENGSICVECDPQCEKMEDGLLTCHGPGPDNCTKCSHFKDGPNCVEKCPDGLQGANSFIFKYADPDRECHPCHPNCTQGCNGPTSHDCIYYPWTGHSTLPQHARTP


Columns and labels:
[1] = target: HER3 on cells (MCF7 cells; MDA-175 cells) (UniProt P21860 20-1342, limits assumed); assay: cell-based or functional assay
HER3-ECD-Fc [2] = target: T2, HER3-ECD-Fc (human, UniProt P21860 20-643, limits assumed); assay: competition with 125I-HRG for HER3-ECD-Fc captured on anti-human antibody plates, antibody pre-bound, counts as % of control
T2 construct: extracellular domain; also called HER3-FC; HER3-IgG

Erbitux = target: T3, Erbitux; assay: direct phage ELISA, proteins coated at 2 µg/ml, phage-Fab supernatant, OD450;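 also: specificity test of dual-activity clones, with binding assessed across an antigen panel to check whether each recognises only its cognate target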
T3 construct: also called cetuximab; C225; not shown: the constant regions

BSA = target: T4, BSA (bovine, UniProt P02769); assay: as above
T4 construct: also called bovine serum albumin
T4 sequence (P02769 25-607 limits assumed): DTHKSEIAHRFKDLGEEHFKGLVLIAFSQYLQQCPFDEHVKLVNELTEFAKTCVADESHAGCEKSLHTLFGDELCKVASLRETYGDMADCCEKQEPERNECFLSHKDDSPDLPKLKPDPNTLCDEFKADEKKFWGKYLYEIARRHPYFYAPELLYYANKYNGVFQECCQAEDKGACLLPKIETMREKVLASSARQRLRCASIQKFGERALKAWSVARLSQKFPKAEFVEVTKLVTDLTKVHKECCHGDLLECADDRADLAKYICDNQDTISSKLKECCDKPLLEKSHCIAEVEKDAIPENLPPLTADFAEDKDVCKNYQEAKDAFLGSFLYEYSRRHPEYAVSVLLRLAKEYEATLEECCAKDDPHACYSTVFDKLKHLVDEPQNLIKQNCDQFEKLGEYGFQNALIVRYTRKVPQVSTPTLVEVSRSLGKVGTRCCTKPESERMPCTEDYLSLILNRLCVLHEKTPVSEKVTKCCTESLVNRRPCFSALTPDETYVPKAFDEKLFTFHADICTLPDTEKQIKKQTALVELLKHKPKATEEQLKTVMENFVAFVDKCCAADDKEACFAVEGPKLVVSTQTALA

hEGFR-ECD = target: T5, hEGFR-ECD (human, UniProt P00533 25-645); assay: as above
T5 construct: extracellular domain

HER2-ECD = target: T6, HER2-ECD (human, UniProt P04626 23-652); assay: as above
T6 construct: extracellular domain

HER4-ECD-Fc = target: T1, HER4-ECD-Fc; assay: as above
HER3-ECD-Fc [3] = target: T2, HER3-ECD-Fc; assay: as above

Binder | binding result (Erbitux) | binding result (BSA) | binding result (hEGFR-ECD) | binding result (HER2-ECD) | binding result (HER4-ECD-Fc) | also measured
DL11 (mIgG2A) (bispecific antibody, V domains shown) VH: EVQLVESGGGLVQPGGSLRLSCAASGFTLSGDWIHWVRQAPGKGLEWLGEISAAGGYTDYADSVKGRFTISADTSKNTAYLQMNSLRAEDTAVYYCARESRVSFEAAMDYWGQGTLVTVSS VL: DIQMTQSPSSLSASVGDRVTITCRASQDLATDVAWYQQKPGKAPKLLIYSASFLYSGVPSRFSGSGSGTDFTLTISSLQPEDFATYYCQQSEPEPYTFGQGTKVEIKR |  |  |  |  |  | IC50 of inhibition of MDA-175 cell proliferation [1]: 0.8 to 1 µg/mL
D1.5-100 (mIgG2A) (bispecific antibody, V domains shown, also called anti-EGFR/HER3 antibody D1.5-100) VH: EVQLVESGGGLVQPGGSLRLSCAASGFTFTGNWIHWVRQAPGKGLEWVGEISPSGGYTDYADSVKGRFTISADTSKNTAYLQMNSLRAEDTAVYYCARESRVSYEAAMDYWGQGTLVTVSS VL: DIQMTQSPSSLSASVGDRVTITCRASQDLATDVAWYQQKPGKAPKLLIYSASFLYSGVPSRFSGSGSGTDFTLTISSLQPEDFATYYCQQSEPEPYTFGQGTKVEIKR |  |  |  |  |  | IC50 (read off the curve) (HER3-ECD-Fc [2]): ~2 nM
D1.5-103 (phage-displayed Fab clone) (Fab, V domains shown, EGFR/HER3 clone) VH: EVQLVESGGGLVQPGGSLRLSCAASGFTFTGNWIHWVRQAPGKGLEWVGEISPSGGYTDYADSVKGRFTISADTSKNTAYLQMNSLRAEDTAVYYCARESRVSYEAAMDYWGQGTLVTVSS VL: DIQMTQSPSSLSASVGDRVTITCRASQALGDSENGYADVAWYQQKPGKAPKLLIYEGSSLYSGVPSRFSGSGSGTDFTLTISSLQPEDFATYYCQQAAPSPYTFGQGTKVEIKR | no binding | no binding | binds | no binding | no binding | 
D1.5-113 (phage-displayed Fab clone) (Fab, V domains shown, EGFR/HER3 clone) VH: EVQLVESGGGLVQPGGSLRLSCAASGFTFTGNWIHWVRQAPGKGLEWVGEISPSGGYTDYADSVKGRFTISADTSKNTAYLQMNSLRAEDTAVYYCARESRVSYEAAMDYWGQGTLVTVSS VL: DIQMTQSPSSLSASVGDRVTITCRASQSLLASHDGTPWVAWYQQKPGKAPKLLIYDASYLYSGVPSRFSGSGSGTDFTLTISSLQPEDFATYYCQQSTFAPYTFGQGTKVEIKR | no binding | no binding | binds | no binding | no binding | binding result (HER3-ECD-Fc [3]): binds
D1.5-103 (mIgG2A) (bispecific antibody, V domains shown) VH: EVQLVESGGGLVQPGGSLRLSCAASGFTFTGNWIHWVRQAPGKGLEWVGEISPSGGYTDYADSVKGRFTISADTSKNTAYLQMNSLRAEDTAVYYCARESRVSYEAAMDYWGQGTLVTVSS VL: DIQMTQSPSSLSASVGDRVTITCRASQALGDSENGYADVAWYQQKPGKAPKLLIYEGSSLYSGVPSRFSGSGSGTDFTLTISSLQPEDFATYYCQQAAPSPYTFGQGTKVEIKR |  |  |  |  |  | IC50 (read off the curve) (HER3-ECD-Fc [2]): ~3 nM
D1.5-113 (mIgG2A) (bispecific antibody, V domains shown) VH: EVQLVESGGGLVQPGGSLRLSCAASGFTFTGNWIHWVRQAPGKGLEWVGEISPSGGYTDYADSVKGRFTISADTSKNTAYLQMNSLRAEDTAVYYCARESRVSYEAAMDYWGQGTLVTVSS VL: DIQMTQSPSSLSASVGDRVTITCRASQSLLASHDGTPWVAWYQQKPGKAPKLLIYDASYLYSGVPSRFSGSGSGTDFTLTISSLQPEDFATYYCQQSTFAPYTFGQGTKVEIKR |  |  |  |  |  | binding result (HER3-ECD-Fc [2]): binds
D1.5-116 (mIgG2A) (bispecific antibody, V domains shown) VH: EVQLVESGGGLVQPGGSLRLSCAASGFTFTGNWIHWVRQAPGKGLEWVGEISPSGGYTDYADSVKGRFTISADTSKNTAYLQMNSLRAEDTAVYYCARESRVSYEAAMDYWGQGTLVTVSS VL: DIQMTQSPSSLSASVGDRVTITCRASQAIASDVAWYQQKPGKAPKLLIYSASFLYSGVPSRFSGSGSGTDFTLTISSLQPEDFATYYCQQSEPEPYTFGQGTKVEIKR |  |  |  |  |  | binding result (HER3-ECD-Fc [2]): binds
D1.5-121 (phage-displayed Fab clone) (Fab, V domains shown, EGFR/HER3 clone) VH: EVQLVESGGGLVQPGGSLRLSCAASGFTFTGNWIHWVRQAPGKGLEWVGEISPSGGYTDYADSVKGRFTISADTSKNTAYLQMNSLRAEDTAVYYCARESRVSYEAAMDYWGQGTLVTVSS VL: DIQMTQSPSSLSASVGDRVTITCRASQDVGSDLAWYQQKPGKAPKLLIYSASYLYSGVPSRFSGSGSGTDFTLTISSLQPEDFATYYCQQSDPEPYTFGQGTKVEIKR | no binding | no binding | binds | no binding | no binding | binding result (HER3-ECD-Fc [3]): binds
D1.5-122 (phage-displayed Fab clone) (Fab, V domains shown, EGFR/HER3 clone) VH: EVQLVESGGGLVQPGGSLRLSCAASGFTFTGNWIHWVRQAPGKGLEWVGEISPSGGYTDYADSVKGRFTISADTSKNTAYLQMNSLRAEDTAVYYCARESRVSYEAAMDYWGQGTLVTVSS VL: DIQMTQSPSSLSASVGDRVTITCRASQNIASDVAWYQQKPGKAPKLLIYSASSLYSGVPSRFSGSGSGTDFTLTISSLQPEDFATYYCQQSDPEPYTFGQGTKVEIKR |  | no binding | binds | no binding | no binding | 
D1.5-115 (phage-displayed Fab clone) (Fab, V domains shown, EGFR/HER3 clone) VH: EVQLVESGGGLVQPGGSLRLSCAASGFTFTGNWIHWVRQAPGKGLEWVGEISPSGGYTDYADSVKGRFTISADTSKNTAYLQMNSLRAEDTAVYYCARESRVSYEAAMDYWGQGTLVTVSS VL: DIQMTQSPSSLSASVGDRVTITCRASQEIFPDVAWYQQKPGKAPKLLIYSASSLYSGVPSRFSGSGSGTDFTLTISSLQPEDFATYYCQQAAPTPYTFGQGTKVEIKR | no binding | no binding | binds | no binding | no binding | binding result (HER3-ECD-Fc [3]): binds
DL11b (bispecific antibody, V domains shown) VH: EVQLVESGGGLVQPGGSLRLSCAASGFTLSGDWIHWVRQAPGKGLEWLGEISAAGGYTDYADSVKGRFTISADTSKNTAYLQMNSLRAEDTAVYYCARESRVSFEAAMDYWGQGTLVTVSS VL: DIQMTQSPSSLSASVGDRVTITCRASQNIATDVAWYQQKPGKAPKLLIYSASFLYSGVPSRFSGSGSGTDFTLTISSLQPEDFATYYCQQSEPEPYTFGQGTKVEIKR |  |  |  |  |  | IC50 of inhibition of MDA-175 cell proliferation [1]: 0.8 to 1 µg/mL
D1.5-121 (mIgG2A) (bispecific antibody, V domains shown) VH: EVQLVESGGGLVQPGGSLRLSCAASGFTFTGNWIHWVRQAPGKGLEWVGEISPSGGYTDYADSVKGRFTISADTSKNTAYLQMNSLRAEDTAVYYCARESRVSYEAAMDYWGQGTLVTVSS VL: DIQMTQSPSSLSASVGDRVTITCRASQDVGSDLAWYQQKPGKAPKLLIYSASYLYSGVPSRFSGSGSGTDFTLTISSLQPEDFATYYCQQSDPEPYTFGQGTKVEIKR |  |  |  |  |  | binding result (HER3-ECD-Fc [2]): binds
D1.5-116 (phage-displayed Fab clone) (Fab, V domains shown, EGFR/HER3 clone) VH: EVQLVESGGGLVQPGGSLRLSCAASGFTFTGNWIHWVRQAPGKGLEWVGEISPSGGYTDYADSVKGRFTISADTSKNTAYLQMNSLRAEDTAVYYCARESRVSYEAAMDYWGQGTLVTVSS VL: DIQMTQSPSSLSASVGDRVTITCRASQAIASDVAWYQQKPGKAPKLLIYSASFLYSGVPSRFSGSGSGTDFTLTISSLQPEDFATYYCQQSEPEPYTFGQGTKVEIKR | no binding | no binding | binds | no binding | no binding | binding result (HER3-ECD-Fc [3]): binds
D1.5-115 (mIgG2A) (bispecific antibody, V domains shown) VH: EVQLVESGGGLVQPGGSLRLSCAASGFTFTGNWIHWVRQAPGKGLEWVGEISPSGGYTDYADSVKGRFTISADTSKNTAYLQMNSLRAEDTAVYYCARESRVSYEAAMDYWGQGTLVTVSS VL: DIQMTQSPSSLSASVGDRVTITCRASQEIFPDVAWYQQKPGKAPKLLIYSASSLYSGVPSRFSGSGSGTDFTLTISSLQPEDFATYYCQQAAPTPYTFGQGTKVEIKR |  |  |  |  |  | binding result (HER3-ECD-Fc [2]): binds
D1.5-122 (mIgG2A) (bispecific antibody, V domains shown) VH: EVQLVESGGGLVQPGGSLRLSCAASGFTFTGNWIHWVRQAPGKGLEWVGEISPSGGYTDYADSVKGRFTISADTSKNTAYLQMNSLRAEDTAVYYCARESRVSYEAAMDYWGQGTLVTVSS VL: DIQMTQSPSSLSASVGDRVTITCRASQNIASDVAWYQQKPGKAPKLLIYSASSLYSGVPSRFSGSGSGTDFTLTISSLQPEDFATYYCQQSDPEPYTFGQGTKVEIKR |  |  |  |  |  | IC50 (read off the curve) (HER3-ECD-Fc [2]): ~3 nM
